Laboratory results: article PMC11711466

Experiments:
[1] = molecular target: budding yeast MCM2-7 complex (budding yeast) (UniProt P29469); assay: negative-stain EM (2D class averages); eluates of pre-RC reactions with ATP washed with 300 mM NaCl (high salt); complexes on DNA
[2] = molecular target: hORC1-5;hCDC6;hCDT1deltaN;hMCM2-7 (human;human;human;human) (UniProt Q13415+Q13416+Q9UBD5+O43929+O43913+Q99741+Q9H211+P49736+P25205+P33991+P33992+Q14566+P33993); assay: bead pull-down (pre-RC assay); conditions: ATP, high-salt wash, no hORC6; CDT1 form inferred; 25 mM HEPES-KOH pH 7.5, 250 mM KGlu, 1 mM DTT, 4 mM MgOAc, 0.1% Triton X-100, 1 mM ATP or ATPgS, 30 C; high-salt wash adds 300 mM NaCl; in-solution: …; scale: fold reduction of hMCM2-7 signal vs with hORC6
[3] = molecular target: hORC1-5;hORC6;hCDC6;hCDT1deltaN;hMCM2-7 (human;human;human;human;human) (UniProt Q13415+Q13416+Q9UBD5+O43929+O43913+Q9Y5N6+Q99741+Q9H211+P49736+P25205+P33991+P33992+Q14566+P33993); assay: bead pull-down (pre-RC assay); conditions: ATP, high-salt wash; CDT1 form inferred; 25 mM HEPES-KOH pH 7.5, 250 mM KGlu, 1 mM DTT, 4 mM MgOAc, 0.1% Triton X-100, 1 mM ATP or ATPgS, 30 C; high-salt wash adds 300 mM NaCl; in-solution: …; scale: fold higher hMCM2-7 signal than without hORC6

| percent of particles in double-hexamer class averages [1] [%] | Substance | binding signal [2] | binding signal [3] |
| --- | --- | --- | --- |
| 91 | budding yeast MCM2-7 complex, P29469 1-868; P24279 1-971; P30665 1-933; P29496 1-775; P53091 1-1017; P38132 1-845 |  |  |
|  | lamin B2 origin DNA for pre-RC / hOCCM (2 or 3 kbp) | 1.8 | 1.8 |
